Assay results as given in patent US12692324B2, “Anti-chitinase-3-like protein-1 (YKL-40) neutralizing antibody and uses thereof” (Institute of Nuclear Energy Research, Atomic Energy …, priority 2022, dated 2026).
Entries after “also recorded” stand apart in the source; their conditions may differ.

B1: YKL-40 neutralizing antibody: isolated neutralizing antibody specifically binding chitinase-3-like protein-1 (YKL-40); VH SEQ ID NO: 7, VL SEQ ID NO: 8 (antibody, V domains shown)
VH: QIQLVQSGPELKKPGETVRISCKASGYTFPNYGMNWVKQAPGKGLKWMGWINTYTGEPTYTVDFKGQFAFSLETSASTAYLQINNLKNEDTATYFCARSFYGTNGFDYWGQGTTLTVSS
VL: NIVMTQSPKSMSMSVGERVTLSCKASENVGTYVSWYQQKPEQSPKLVIYGASNRYIGVPDRFTGSGSATDFTLTISSVEAEDLADYHCGQSYSYPPTFGGGTKLEIK
modifications: recombinant YKL-40 neutralizing antibody

Legend:
[1] = tested on: human ovarian cancer cell CA5171; conditions: for proportion of Annexin V/7-AAD-positive apoptosis: CA5171, 50 μg/mL YKL-40 neutralizing antibody and/or 2.5 nM paclitaxel, 37° C., 48 hours
Protocol: It is important to know whether the YKL-40 neutralizing antibody of the present disclosure can induce cell apoptosis after combining with human ovarian cell CA5171. In this experiment, two specific dyes “7-amino-actinomycin D” (7-AAD) and “Annexin V” are used in the flow cytometry analysis to detect if the YKL-40 neutralizing antibody induces the cell apoptosis. In addition, the combination treatment of the chemotherapy drug paclitaxel and the YKL-40 neutralizing antibody is also analyzed in this experiment.
The experiment procedure applied herein is, firstly, to treat human ovarian cancer cell CA5171 with a final concentration of 50 μg/mL YKL-40 neutralizing antibody and/or 2.5 nM paclitaxel, then culture them at 37° C. for 48 hours. The control group is treated with normal saline. After the culturing, the cells are collected and stained with 7-AAD and FITC-conjugated annexin V (FITC, Fluorescein isothiocyanate) dyes for 30 minutes. After staining, the cells are washed by using cytometer analysis solution (normal saline with a final concentration of 0.2% fetal bovine serum and 0.5% sodium azide), and then analyzed by flow cytometry.

[2] = tested on: CA5171 ovarian cancer cells, which overexpress chitinase-3-like protein-1; test: Nano SPECT/CT bioimaging in tumor-carried mice; type: in vivo; conditions: tail vein injection
Text: In order to verify these research results in a tumor-carried animal model, the CA5171 ovarian cancer cells, which overexpress chitinase-3-like protein-1, are inoculated in the left hind limb of the experiment animals. After the tumor volume grow to 200-300 mm3, use indium-111-DTPA-YKL-40 antibody complex as a radio-diagnostic drug for tumor mapping. The method of administration of diagnostic drugs is to inject the indium-111-DTPA-YKL-40 antibody complex by tail vein injection. Three tumor-carried mice are used as the animal model in both control and treatment groups, and the cross-sections of transverse, sagittal, and coronal are then taken at different time points such as 1, 4, 24 and 48 hours after administration. The tumor-carried mice of the control group are injected with indium-111-DTPA only, without YKL-40 antibody complex. […] The accumulation of the radioactive drug can at least last for 24 hours as shown in the results.

[3] = tested on: human ovarian cancer cell CA5171; test: Binding ability of antibody to human ovarian cancer cell CA5171 by flow cytometry; type: cell-based
Protocol: When the YKL-40 neutralizing antibody of the present disclosure is isolated and purified, its binding ability to human ovarian cell CA5171 is then evaluated by flow cytometry. In this example, the antibody of the control group and YKL-40 neutralizing antibody are respectively added to the culture of the ovarian cell CA5171. After a period of culturing, the human ovarian cell CA5171 are then analyzed by flow cytometry. Please refer to FIGS. 1A and 1B. […] From the results, the binding ability of the control group antibody IgG is 28.69%, while the binding ability of the YKL-40 neutralizing antibody is as high as 71.57%.

Molecule | proportion of Annexin V/7-AAD-positive apoptosis [1] | time the radioactive drug sustains in the abdominal organs [2] | cytotoxicity (in words) [1] | binding ability ([3]; human ovarian cell CA5171) | binding to CA5171 cells (in words) ([3]; versus control IgG antibody)
CC(=O)O[C@H]1C(=O)[C@@]2(C)[C@H]([C@H](OC(=O)c3ccccc3)[C@]3(O)C[C@H](OC(=O)[C@H](O)[C@@H](NC(=O)c4ccccc4)c4ccccc4)C(C)=C1C3(C)C)[C@]1(OC(C)=O)CO[C@@H]1C[C@@H]2O [paclitaxel, reference compound] | 43.90%±0.35% | – | – | – | –
O=C([O-])CN(CCN(CC(=O)[O-])CC(=O)[O-])CCN(CC(=O)[O-])CC(=O)[O-].[111In+3].[H+].[H+] [indium-111-DTPA] | – | 1 h | – | – | –
B1 | 3.91±0.11% | – | not observed to be cytotoxic | 71.57% | stronger binding ability to CA5171 ovarian cells than the control group; also recorded: can significantly bind to human ovarian cancer cell CA5171
